What was measured:
[1] = biological target: T1, VEGF (R&D systems, Minneapolis, Minn.) (UniProt P15692-4 27-191, limits assumed); assay: BIAcore SPR
Description: (§1) RL was kept low to minimize avidity due to the dimeric nature of VEGF. No capture of the antibody was made on the reference surface to serve as a negative control. Subsequently, VEGF was injected to all flow cells at a flow rate of 50 μL/min for two minutes to monitor association followed by a 25-minute flow of HBS-P running buffer (10 mM HEPES, 150 mM sodium chloride, 0.005% P-20, pH 7.4) to monitor the dissociation phase. At each cycle, VEGF, in 6 different concentrations of VEGF ranging between 0 nM and 512 nM and at four-fold increments, was injected over the surface. […] Binding data were fit to the 1:1 Langmuir model to extract binding constants from the BIAevaluate software. Double referencing was applied in each analysis to eliminate background responses from the reference surface and buffer only control. All the binding kinetics data were analyzed at least three separate determinations.

[2] = biological target: T2, human VEGF-A residues 27-191 of Accession #AAV38412 (human, UniProt P15692 27-191); assay: BIAcore SPR
T2 construct: range 27-191
Description: (§2) The binding kinetics and affinity of the antibodies for VEGF (human VEGF-A residues 27-191 of Accession #AAV38412) was determined by using a BIAcore T200 surface plasmon resonance system (BIAcore, GE Healthcare, Piscataway, N.J.). Coupling running buffer was HBS-EP+ running buffer (10 mM HEPES, 150 mM sodium chloride, 3 mM EDTA 0.05% P-20, pH 7.4); assay running buffer was HBS-EP+ with 300 mM sodium chloride and 0.1 mg/mL BSA (Sigma A7906). Polyclonal goat anti-human Fc (Thermo Scientific prod#31125) was first immobilized to the biosensor surface in 10 mM sodium acetate, pH 4.5 using standard BIAcore amine coupling reagents (N-ethyl-N′-dimethylamino-propylcarbodiimide, EDC; N-hydroxysuccinimide, NHS; and ethanolamine HCl, pH 8.5). For binding kinetics assay a series of cycles were performed, each cycle consisted of 1) mAb capture, 2) Ag or buffer injection, 3) dissociation phase and 4) regeneration. Briefly, anti-VEGF antibodies were captured on parallel surfaces at a low flow rate of 10 μL/min. Capture levels were kept low to minimize avidity due to the dimeric nature of VEGF. No capture of the antibody was made on the reference surface to serve for primary referencing and as a negative control. Subsequently, VEGF or buffer only was injected to all flow cells at a flow rate of 80 μL/min for three minutes to monitor association followed by a 20-minute flow of assay rinning buffer at a flow rate of 80 μL/min to monitor dissociation. […] At the end of each cycle the surface was regenerated with 10 mM glycine, pH 1.5 at a flow rate of 60 μL/min in pulses of 60 and 10 sec. Binding data were fit to the 1:1 Langmuir model with mass transport term included using Biacore T200 Evaluation Software to determine the binding constants.

[3] = biological target: T1, VEGF (R&D systems, Minneapolis, Minn.); assay: BIAcore SPR, WT/mutant
Description: as §1

[4] = biological target: T1, VEGF (R&D systems, Minneapolis, Minn.); assay: BIAcore SPR, mutant/WT
Description: as §1

[5] = biological target: T2, human VEGF-A residues 27-191 of …; assay: BIAcore SPR, KD WT/KD mutant
Description: as §2

[6] = biological target: T1, VEGF (R&D systems, Minneapolis, Minn.); assay: BIAcore SPR, improvement over WT
Description: as §1

[7] = biological target: T3, unlabeled human VEGF (ELISA coat) (human, UniProt P15692-4 27-191, limits assumed); assay: ELISA 1 hr, EC50 WT/EC50 mutant
Description: (§3) To detect identified variants binding to antigen, ELISA plates (Nunc-Immuno MaxiSorp plates, Nalge Nunc, Rochester, N.Y.) were coated overnight at 4° C. with unlabeled human VEGF at 1 μg/mL in 0.2 M sodium carbonate-bicarbonate buffer (pH 9.4, Pierce, Rockford, Ill.). The plates were then blocked with SuperBlock Blocking Buffer (Pierce, Rockford, Ill.) for 30 min and washed with Washing Buffer (PBS containing 0.1% Tween 20). All the washing steps were performed for three times. […] The plates were washed and 100 μL of goat anti-human kappa HRP-conjugated antibody (Southern Biotech, Birmingham, Ala.) diluted at 1:1000 in ELISA buffer was added to each well. After 30 minutes of incubation, plates were washed and bound antibodies were detected by addition of TMB 1 Component HRP Microwell substrate (BioFx #TMBW-1000-01). The reaction was terminated by addition of 100 μL/well of 650 nM Stop Reagent for TMB Microwell substrate and the absorbance was measured at 650 nm using a VERSAmax microplate reader (Molecular Devices, Sunnyvale, Calif.). Data were fitted using nonlinear regression with the software […]

[8] = biological target: T3, unlabeled human VEGF (ELISA coat); assay: ELISA overnight, EC50 WT/EC50 mutant
Description: as §3

[9] = biological target: T2, human VEGF-A residues 27-191 of …; assay: SS DLL4-VEGF DVD-Ig format; BIAcore by paragraph 262
Description: as §2

T1 sequence (P15692 other isoform, or with tags, fused parts or gaps limits assumed): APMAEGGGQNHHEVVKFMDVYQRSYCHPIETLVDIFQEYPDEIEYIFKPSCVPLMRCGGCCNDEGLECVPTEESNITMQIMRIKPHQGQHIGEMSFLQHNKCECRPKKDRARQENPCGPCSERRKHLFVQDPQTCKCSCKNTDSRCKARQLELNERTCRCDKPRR
T2 sequence (P15692 other isoform, or with tags, fused parts or gaps limits assumed): as above
T3 sequence (P15692 other isoform, or with tags, fused parts or gaps limits assumed): as above

B1: 95 (antibody, human IgG1, V domains shown)
VH: EVQLVESGGGLVQPGGSLRLSCAASGYTFTNYGMNWVRQAPGKGLEWVGWINTYTGEPTYAADFKRRFTFSLDTSKSTAYLQMNSLRAEDTAVYYCAKYPDYYGSSHWYFDVWGQGTLVTVSS
VL: DIQMTQSPSSLSASVGDRVTITCSASQDISNYLNWYQQKPGKAPKVLIYFTSSLHSGVPSRFSGSGSGTDFTLTISSLQPEDFATYYCQQYSTVPWTFGQGTKVEIKR
[1]
  Kd: 1.54 nM
  koff: 0.000396 s⁻¹
  kon: 262000 M⁻¹ s⁻¹
[2]
  Kd: 1.3 nM
  koff: 0.000351 s⁻¹
  kon: 270000 M⁻¹ s⁻¹
[3]
  Δkoff: 0.9 fold
[4]
  Δkon: 1.5 fold
[5]
  affinity improvement: 0.4 fold
[6]
  ΔKD: 1.3 fold
[7]
  ELISA 1hr binding: 4.5 fold
[8]
  ELISA o/n binding: 3 fold

B2: E 56 Q (bispecific antibody)
VH: EVQLVESGGGLVQPGGSLRLSCAASGFTFSNFPMAWVRQAPGKGLEWVATISSSDGTTYYRDSVKGRFTISRDNAKNSLYLQMNSLRAEDTAVYYCARGYYNSPFAYWGQGTLVTVSSASTKGPEVQLVESGGGLVQPGGSLRLSCAASGYTFTNYGMNWVRQAPGKGLEWVGWINTYTGQPTYAADFKRRFTFSLDTSKSTAYLQMNSLRAEDTAVYYCAKYPHYYGSSHWYFDVWGQGTLVTVSS
VL: DIQMTQSPSSLSASVGDRVTITCRASEDIYSNLAWYQQKPGKAPKLLIYDTNNLADGVPSRFSGSGSGTDFTLTISSLQPEDFATYYCQQYNNYPPTFGQGTKLEIKRTVAAPDIQMTQSPSSLSASVGDRVTITCSASQDISNYLNWYQQKPGKAPKVLIYFTSSLHSGVPSRFSGSGSGTDFTLTISSLQPEDFATYYCQQYSTVPWTFGQGTKVEIK
notes: also called SS DLL4-VEGF DVD-Ig variant E56Q
[9]
  Affinity relative to WT: 0.7 fold

B3: E 56 R (bispecific antibody)
VH: EVQLVESGGGLVQPGGSLRLSCAASGFTFSNFPMAWVRQAPGKGLEWVATISSSDGTTYYRDSVKGRFTISRDNAKNSLYLQMNSLRAEDTAVYYCARGYYNSPFAYWGQGTLVTVSSASTKGPEVQLVESGGGLVQPGGSLRLSCAASGYTFTNYGMNWVRQAPGKGLEWVGWINTYTGRPTYAADFKRRFTFSLDTSKSTAYLQMNSLRAEDTAVYYCAKYPHYYGSSHWYFDVWGQGTLVTVSS
VL: DIQMTQSPSSLSASVGDRVTITCRASEDIYSNLAWYQQKPGKAPKLLIYDTNNLADGVPSRFSGSGSGTDFTLTISSLQPEDFATYYCQQYNNYPPTFGQGTKLEIKRTVAAPDIQMTQSPSSLSASVGDRVTITCSASQDISNYLNWYQQKPGKAPKVLIYFTSSLHSGVPSRFSGSGSGTDFTLTISSLQPEDFATYYCQQYSTVPWTFGQGTKVEIK
notes: also called SS DLL4-VEGF DVD-Ig variant E56R
[9]
  Affinity relative to WT: 0.9 fold

B4: E 56 T (bispecific antibody)
VH: EVQLVESGGGLVQPGGSLRLSCAASGFTFSNFPMAWVRQAPGKGLEWVATISSSDGTTYYRDSVKGRFTISRDNAKNSLYLQMNSLRAEDTAVYYCARGYYNSPFAYWGQGTLVTVSSASTKGPEVQLVESGGGLVQPGGSLRLSCAASGYTFTNYGMNWVRQAPGKGLEWVGWINTYTGTPTYAADFKRRFTFSLDTSKSTAYLQMNSLRAEDTAVYYCAKYPHYYGSSHWYFDVWGQGTLVTVSS
VL: DIQMTQSPSSLSASVGDRVTITCRASEDIYSNLAWYQQKPGKAPKLLIYDTNNLADGVPSRFSGSGSGTDFTLTISSLQPEDFATYYCQQYNNYPPTFGQGTKLEIKRTVAAPDIQMTQSPSSLSASVGDRVTITCSASQDISNYLNWYQQKPGKAPKVLIYFTSSLHSGVPSRFSGSGSGTDFTLTISSLQPEDFATYYCQQYSTVPWTFGQGTKVEIK
notes: also called SS DLL4-VEGF DVD-Ig variant E56T
[9]
  Affinity relative to WT: 0.8 fold

B5: E 56 W (bispecific antibody)
VH: EVQLVESGGGLVQPGGSLRLSCAASGFTFSNFPMAWVRQAPGKGLEWVATISSSDGTTYYRDSVKGRFTISRDNAKNSLYLQMNSLRAEDTAVYYCARGYYNSPFAYWGQGTLVTVSSASTKGPEVQLVESGGGLVQPGGSLRLSCAASGYTFTNYGMNWVRQAPGKGLEWVGWINTYTGWPTYAADFKRRFTFSLDTSKSTAYLQMNSLRAEDTAVYYCAKYPHYYGSSHWYFDVWGQGTLVTVSS
VL: DIQMTQSPSSLSASVGDRVTITCRASEDIYSNLAWYQQKPGKAPKLLIYDTNNLADGVPSRFSGSGSGTDFTLTISSLQPEDFATYYCQQYNNYPPTFGQGTKLEIKRTVAAPDIQMTQSPSSLSASVGDRVTITCSASQDISNYLNWYQQKPGKAPKVLIYFTSSLHSGVPSRFSGSGSGTDFTLTISSLQPEDFATYYCQQYSTVPWTFGQGTKVEIK
notes: also called SS DLL4-VEGF DVD-Ig variant E56W
[9]
  Affinity relative to WT: 0.6 fold

B6: G 55 Q (bispecific antibody)
VH: EVQLVESGGGLVQPGGSLRLSCAASGFTFSNFPMAWVRQAPGKGLEWVATISSSDGTTYYRDSVKGRFTISRDNAKNSLYLQMNSLRAEDTAVYYCARGYYNSPFAYWGQGTLVTVSSASTKGPEVQLVESGGGLVQPGGSLRLSCAASGYTFTNYGMNWVRQAPGKGLEWVGWINTYTQEPTYAADFKRRFTFSLDTSKSTAYLQMNSLRAEDTAVYYCAKYPHYYGSSHWYFDVWGQGTLVTVSS
VL: DIQMTQSPSSLSASVGDRVTITCRASEDIYSNLAWYQQKPGKAPKLLIYDTNNLADGVPSRFSGSGSGTDFTLTISSLQPEDFATYYCQQYNNYPPTFGQGTKLEIKRTVAAPDIQMTQSPSSLSASVGDRVTITCSASQDISNYLNWYQQKPGKAPKVLIYFTSSLHSGVPSRFSGSGSGTDFTLTISSLQPEDFATYYCQQYSTVPWTFGQGTKVEIK
notes: also called SS DLL4-VEGF DVD-Ig variant G55Q
[9]
  Affinity relative to WT: 0.9 fold

B7: N 31 G (bispecific antibody)
VH: EVQLVESGGGLVQPGGSLRLSCAASGFTFSNFPMAWVRQAPGKGLEWVATISSSDGTTYYRDSVKGRFTISRDNAKNSLYLQMNSLRAEDTAVYYCARGYYNSPFAYWGQGTLVTVSSASTKGPEVQLVESGGGLVQPGGSLRLSCAASGYTFTGYGMNWVRQAPGKGLEWVGWINTYTGEPTYAADFKRRFTFSLDTSKSTAYLQMNSLRAEDTAVYYCAKYPHYYGSSHWYFDVWGQGTLVTVSS
VL: DIQMTQSPSSLSASVGDRVTITCRASEDIYSNLAWYQQKPGKAPKLLIYDTNNLADGVPSRFSGSGSGTDFTLTISSLQPEDFATYYCQQYNNYPPTFGQGTKLEIKRTVAAPDIQMTQSPSSLSASVGDRVTITCSASQDISNYLNWYQQKPGKAPKVLIYFTSSLHSGVPSRFSGSGSGTDFTLTISSLQPEDFATYYCQQYSTVPWTFGQGTKVEIK
notes: also called SS DLL4-VEGF DVD-Ig variant N31G
[9]
  Affinity relative to WT: 1.1 fold

Source: patent publication US20140154255A1 (AbbVie / Abbott, published 2014)
